Measurements taken from article PMC4600729.

Legend:
[1] = target: taxol-stabilized microtubules (polymer of alpha/beta-tubulin), immobilized; test: single-molecule TIRF microscopy; Kin5_18GFP landing on and dissociating from the lattice of an immobilized microtubule in 1 mM ADP; exponential fit of binding durations
[2] = target: taxol-stabilized microtubules (polymer of alpha/beta-tubulin), immobilized; test: single-molecule TIRF microscopy; GFP-labelled motor (25 pM) in 1 mM ATP on immobilized taxol-stabilized microtubules; pause lifetimes at plus ends, exponential fit; BRB80 pH 6.8
[3] = target: taxol-stabilized microtubules (polymer of alpha/beta-tubulin), immobilized; test: single-molecule TIRF microscopy; spiking experiment, crowded conditions: pM GFP-labelled motor mixed with 15-25 nM unlabelled motor; binding durations at plus ends of taxol-stabilized microtubules

Chain of taxol-stabilized microtubules (polymer of alpha/beta-tubulin), immobilized (P68363 whole entry, chain 1 of 2): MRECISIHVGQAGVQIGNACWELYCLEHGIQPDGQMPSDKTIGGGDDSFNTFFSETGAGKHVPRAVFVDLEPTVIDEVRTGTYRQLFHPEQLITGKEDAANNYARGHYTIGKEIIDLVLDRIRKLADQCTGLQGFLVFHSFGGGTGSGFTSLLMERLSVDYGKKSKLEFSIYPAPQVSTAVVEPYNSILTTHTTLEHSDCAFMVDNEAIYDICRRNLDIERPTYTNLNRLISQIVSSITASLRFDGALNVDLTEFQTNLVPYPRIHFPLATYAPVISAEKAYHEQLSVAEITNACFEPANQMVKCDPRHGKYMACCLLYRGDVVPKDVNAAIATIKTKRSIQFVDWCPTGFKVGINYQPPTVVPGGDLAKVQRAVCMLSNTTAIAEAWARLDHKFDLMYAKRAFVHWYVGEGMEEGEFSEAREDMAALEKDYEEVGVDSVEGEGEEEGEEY
Chain of taxol-stabilized microtubules (polymer of alpha/beta-tubulin), immobilized (A8K068 whole entry, chain 2 of 2, further chain): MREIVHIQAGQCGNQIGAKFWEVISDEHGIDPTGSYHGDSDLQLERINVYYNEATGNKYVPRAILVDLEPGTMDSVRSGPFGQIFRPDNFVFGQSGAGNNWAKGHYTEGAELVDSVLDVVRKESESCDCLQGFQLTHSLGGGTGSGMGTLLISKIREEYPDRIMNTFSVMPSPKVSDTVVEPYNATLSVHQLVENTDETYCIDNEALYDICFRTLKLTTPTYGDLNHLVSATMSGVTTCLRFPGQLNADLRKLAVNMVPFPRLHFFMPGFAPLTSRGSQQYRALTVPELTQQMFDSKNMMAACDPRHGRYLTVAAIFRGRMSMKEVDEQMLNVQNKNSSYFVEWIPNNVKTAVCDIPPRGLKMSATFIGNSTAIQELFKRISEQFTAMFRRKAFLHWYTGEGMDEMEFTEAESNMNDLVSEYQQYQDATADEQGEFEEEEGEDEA

For “Kin5_18GFP (dimeric kinesin-5: motor domain and native 18-residue neck linker of Xenopus laevis Eg5 fused to the proximal coiled coil of Drosophila conventional kinesin heavy chain, GFP-tagged)”, the mean binding duration on the microtubule lattice in 1 mM ADP [1] was 1.07 s, the mean pause duration at plus ends [2] was 7 s and the end duration at plus ends under crowded conditions [3] was 2.26 s.
